Data: patent US20160046672A1, “STAPLING eIF4E INTERACTING PEPTIDES” (AGENCY FOR SCIENCE, TECHNOLOGY AND RESEARCH, priority 2013, published 2016)
Positions of bridges follow the written chain, without caps; N, C: chain ends. Non-standard residues stand in square brackets, D forms with d. Residues, ends and D or L forms follow the SMILES beside them. S5 = C=CCCC[C@](C)(N)C(=O)O; Abu = CC[C@H](N)C(=O)O; Aib = CC(C)(N)C(=O)O

Legend:
[1] = Circular dichroism, percent α-helicity in solution; type: physicochemical; details: CD, 5 mM sodium phosphate buffer pH 7.0
Experimental: CD was measured on a JASCO J-810 spectropolarimeter, and spectra were either recorded with a quartz cuvette (Helmer) with a pathlength of 0.01 cm or 0.1 cm in 5 mM sodium phosphate buffer (pH 7.0). FUV CD spectra were recorded from 260 nm to 200 nm at a peptide concentration of either 2 mg/ml or 0.5 mg/ml, respectively. The CD signal was converted into mean residue ellipticity in units of degree·cm^2·dmol^−1·residue^−1. CD spectra were recorded at a data pitch of 0.2 nm at 50 nm min^−1, a response time of 2 s, and a bandwidth of […]. Once converted to mean residue ellipticity, percent α-helicity can be calculated with equation (1) and (2): […]

circular dichroism = details: 5 mM sodium phosphate; pH 7.0; ns °C; 0.5 or 2 mg/mL
eIF4E = target: T1, eIF4E (Homo sapiens, UniProt P06730); assay: eIF4E affinity (SPR/FP, method not named); type: binding
T1 construct: made in house
T1 sequence (P06730 whole entry): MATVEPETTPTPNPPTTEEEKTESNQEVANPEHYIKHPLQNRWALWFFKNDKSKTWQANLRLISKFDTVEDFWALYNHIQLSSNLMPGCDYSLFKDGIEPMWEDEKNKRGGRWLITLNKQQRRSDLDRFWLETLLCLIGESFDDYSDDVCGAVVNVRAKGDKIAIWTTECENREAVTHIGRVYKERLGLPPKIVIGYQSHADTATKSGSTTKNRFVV
Experimental: (§1) Apparent Kd values were determined for a variety of molecules via competitive anisotropy anisotropy experiments. Titrations were carried out with the concentrations eIF4E held constant at 200 nM, respectively and the labeled peptide at 50 nM. The competing molecules were then titrated against complex of the FAM labeled peptide and protein. Apparent Kd values were determined by fitting the experimental data to the equations shown below: […]
(§2) Six buffer blanks were first injected to equilibrate the instrument fully and then a solvent correction curve was performed followed by a further two blank injections. […] Using a flow rate of 50 μl/min, compounds were injected for 60 s and dissociation was monitored for 180 s. The data collection rate was 10 Hz. Kds were determined using the BiaEvaluation software (Biacore) and calculated kinetically from the dissociation and association phase data for each of the peptides. The kinetic data were fitted to 1:1 binding models. Each individual peptide Kd was determined from three separate titrations. Within each titration at least two concentration points were duplicated to ensure stability and robustness of the chip surface.

[2] = target: T2, human eukaryotic translation initiation factor 4E (eIF4E), full-length (human, UniProt P06730 2-217); assay: SPR, Biacore T100, eIF4E immobilised on CM5, peptide as analyte, kinetic 1:1 fit
T2 construct: mature; For SPR it was amine-coupled to a CM5 chip with m7GTP present in a 2:1 ratio. 'mature' is used here for full length; also called full length eIF4E
T2 sequence (P06730 2-217): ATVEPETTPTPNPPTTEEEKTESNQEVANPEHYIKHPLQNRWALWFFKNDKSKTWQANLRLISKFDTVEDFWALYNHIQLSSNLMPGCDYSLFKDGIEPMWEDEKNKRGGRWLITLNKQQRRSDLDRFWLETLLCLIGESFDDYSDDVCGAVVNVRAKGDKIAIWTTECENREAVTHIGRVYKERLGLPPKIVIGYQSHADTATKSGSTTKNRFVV
Experimental: For stock peptide solutions, the compounds were dissolved in 100% DMSO to a concentration of 10 mM; further dilutions of the peptide stock solutions into DMSO and/or running buffer were performed immediately prior to analysis. Running buffer consisted of 10 mM Hepes pH 7.6, 0.15M NaCl, 1 mM DTT and 0.1% Tween20. Stock/DMSO diluted peptide solutions were diluted into 1.03× running buffer to make a peptide solution with 3% DMSO final concentration. […] Surface Plasmon resonance experiments were performed on a Biacore T100 machine.
eIF4E was immobilized on a CM5 sensor chip. The CM5 chip was conditioned with a 6 s injection of 100 mM HCL, followed by a 6 s injection of 0.1% SDS and completed with a 6 s injection of 50 mM NaOH at a flow rate of 100 μl/min. […] Purified eIF4E was diluted with 10 mM sodium acetate buffer (pH 5.0) to a final concentration of 0.5 μM with m⁷ GTP present in a 2:1 ratio in order to stabilize eIF4E. The amount of eIF4E immobilized on the activated surface was controlled by altering the contact time of the protein solution and was approximately 1000 RU. After the immobilization of the protein, a 7-min injection (at 10 μl min⁻¹) of 1 M ethanolamine (pH 8.5) was used to quench excess active succinimide ester groups.
as §2, with “titrations.” for “titrations. Within each titration at least two concentration points were duplicated to ensure stability and robustness of the chip surface.”

[3] = target: T2, human eukaryotic translation initiation …; assay: competitive fluorescence anisotropy (FP), displacement of FAM tracer from eIF4E, apparent Kd
Experimental: as §1, with “The competing molecules were then titrated against complex of the FAM labeled peptide and protein.” left out

Molecule: CC(=O)N[C@@H](CCCCN)C(=O)N[C@@H](CCCCN)C(=O)N[C@@H](CCCNC(=N)N)C(=O)N[C@@H](Cc1ccc(O)cc1)C(=O)N[C@@H](CO)C(=O)N[C@@H](CCCNC(=N)N)C(=O)N[C@@]1(C)CCCC=CCCC[C@@](C)(C(=O)N[C@@H](CC(C)C)C(N)=O)NC(=O)[C@H](CC(C)C)NC(=O)[C@H](CC(C)C)NC(=O)[C@H](CCC(N)=O)NC1=O (relative stereo) [sTIP-04, KKRYSR*QLL*L]
- Helicity (%) [1]: 63%

Molecule: CC(=O)N[C@@H](CCCCN)C(=O)N[C@@H](CCCCN)C(=O)N[C@@H](CCCNC(=N)N)C(=O)N[C@@H](Cc1ccc(O)cc1)C(=O)N[C@@H](CO)C(=O)N[C@@H](CCCNC(=N)N)C(=O)NC(C)(C)C(=O)N[C@@H](CCC(N)=O)C(=O)N[C@@H](CC(C)C)C(=O)N[C@@H](CC(C)C)C(=O)NC(C)(C)C(=O)N[C@@H](CC(C)C)C(N)=O [TIP-04, KKRYSRXQLLXL]
- helicity (circular dichroism): 4%
- Helicity (%) [1]: 4%

Molecule: CC(=O)N[C@@H](CCCCN)C(=O)N[C@@H](CCCCN)C(=O)N[C@@H](CCCNC(=N)N)C(=O)N[C@@H](Cc1ccc(O)cc1)C(=O)N[C@@H](CO)C(=O)N[C@@H](CCCNC(=N)N)C(=O)NC(C)(C)C(=O)N[C@@H](Cc1ccccc1)C(=O)N[C@@H](CC(C)C)C(=O)N[C@@H](CC(C)C)C(=O)NC(C)(C)C(N)=O (Ac-KKRYSR[Aib]FLL[Aib]-NH2)
- helicity (circular dichroism): 7%

Molecule: CC[C@H](NC(=O)[C@]1(C)CCCC=CCCC[C@](C)(NC(=O)[C@H](CCCNC(=N)N)NC(=O)[C@H](CO)NC(=O)[C@H](Cc2ccc(O)cc2)NC(=O)[C@H](CCCNC(=N)N)NC(=O)[C@H](CCCCN)NC(=O)[C@H](CCCCN)NC(C)=O)C(=O)N[C@@H](Cc2ccccc2)C(=O)N[C@@H](CC(C)C)C(=O)N[C@@H](CC(C)C)C(=O)N1)C(N)=O (relative stereo) [sTIP-01^F12&, KKRYSR*FLL*&]
- helicity (circular dichroism): 44%
- affinity / binding to eIF4E (in words) (eIF4E): improved Kd values as compared to sTIP-01
- Helicity (%) [1]: 44%

Molecule: CC[C@H](NC(=O)C(C)(C)NC(=O)[C@H](CC(C)C)NC(=O)[C@H](CC(C)C)NC(=O)[C@H](Cc1ccccc1)NC(=O)C(C)(C)NC(=O)[C@H](CCCNC(=N)N)NC(=O)[C@H](CO)NC(=O)[C@H](Cc1ccc(O)cc1)NC(=O)[C@H](CCCNC(=N)N)NC(=O)[C@H](CCCCN)NC(=O)[C@H](CCCCN)NC(C)=O)C(N)=O [TIP-01^F12&, KKRYSRXFLLX&] (Ac-KKRYSR[Aib]FLL[Aib][Abu]-NH2)
- helicity (circular dichroism): 11%
- Helicity (%) [1]: 11%

Molecule: CC(=O)N[C@@H](CCCCN)C(=O)N[C@@H](CCCCN)C(=O)N[C@@H](CCCNC(=N)N)C(=O)N[C@@H](Cc1ccc(O)cc1)C(=O)N[C@@H](CO)C(=O)N[C@@H](CCCNC(=N)N)C(=O)N[C@@H](CCC(=O)O)C(=O)N[C@@]1(C)CCCC=CCCC[C@@](C)(C(N)=O)NC(=O)CNC(=O)[C@H](CC(C)C)NC(=O)[C@H](CC(C)C)NC1=O [sTIP-02, KKRYSRE*LLG*]
- helicity (circular dichroism): 18%
- Kd (in words) (eIF4E): nanomolar range
- affinity / binding to eIF4E (in words) (eIF4E): no improvement in binding over eIF4G^D5S

Molecule: CC(=O)N[C@@H](CCCCN)C(=O)N[C@@H](CCCCN)C(=O)N[C@@H](CCCNC(=N)N)C(=O)N[C@@H](Cc1ccc(O)cc1)C(=O)N[C@@H](CO)C(=O)N[C@@H](CCCNC(=N)N)C(=O)N[C@@]1(C)CCCC=CCCC[C@@](C)(C(=O)N[C@@H](Cc2ccccc2)C(N)=O)NC(=O)[C@H](CC(C)C)NC(=O)[C@H](CC(C)C)NC(=O)[C@H](Cc2ccccc2)NC1=O (Ac-KKRYSR[S5]FLL[S5]F-NH2; staple 7-11)
- helicity (circular dichroism): 24%

Molecule: CC(=O)N[C@@H](CCCCN)C(=O)N[C@@H](CCCCN)C(=O)N[C@@H](CCCNC(=N)N)C(=O)N[C@@H](Cc1ccc(O)cc1)C(=O)N[C@@H](CO)C(=O)N[C@@H](CCCNC(=N)N)C(=O)N[C@@]1(C)CCCC=CCCC[C@@](C)(C(=O)N[C@@H](Cc2ccccc2)C(N)=O)NC(=O)[C@H](CC(C)C)NC(=O)[C@H](CC(C)C)NC(=O)[C@H](C)NC1=O (relative stereo) [sTIP-01^F8A, KKRYSR*ALL*F]
- helicity (circular dichroism): 80%
- affinity / binding to eIF4E (in words) (eIF4E): improved Kd values as compared to sTIP-01

Molecule: CC(=O)N[C@@H](CCCCN)C(=O)N[C@@H](CCCCN)C(=O)N[C@@H](CCCNC(=N)N)C(=O)N[C@@H](Cc1ccc(O)cc1)C(=O)N[C@@H](CO)C(=O)N[C@@H](CCCNC(=N)N)C(=O)N[C@@]1(C)CCCC=CCCC[C@@](C)(C(N)=O)NC(=O)[C@H](CC(C)C)NC(=O)[C@H](CC(C)C)NC(=O)[C@H](Cc2ccccc2)NC1=O (Ac-KKRYSR[S5]FLL[S5]-NH2; staple 7-11)
- helicity (circular dichroism): 72%

Molecule: Ac-KKRYSREFLLGF-NH2 [eIF4G^D5S, reference compound]
- helicity (circular dichroism): 0%
- Helicity (%) [1]: 0%

Molecule: CC(=O)N[C@@H](CCCCN)C(=O)N[C@@H](CCCCN)C(=O)N[C@@H](CCCNC(=N)N)C(=O)N[C@@H](Cc1ccc(O)cc1)C(=O)N[C@@H](CO)C(=O)N[C@@H](CCCNC(=N)N)C(=O)NC(C)(C)C(=O)N[C@@H](C)C(=O)N[C@@H](CC(C)C)C(=O)N[C@@H](CC(C)C)C(=O)NC(C)(C)C(=O)N[C@@H](Cc1ccccc1)C(N)=O [TIP-01^F8A, KKRYSRXALLXF] (Ac-KKRYSR[Aib]ALL[Aib]F-NH2)
- helicity (circular dichroism): 10%
- Helicity (%) [1]: 10%

Molecule: CC(=O)N[C@@H](CCCCN)C(=O)N[C@@H](CCCCN)C(=O)N[C@@H](CCCNC(=N)N)C(=O)N[C@@H](Cc1ccc(O)cc1)C(=O)N[C@@H](CO)C(=O)N[C@@H](CCCNC(=N)N)C(=O)NC(C)(C)C(=O)N[C@@H](Cc1ccccc1)C(=O)N[C@@H](CC(C)C)C(=O)N[C@@H](CC(C)C)C(=O)NC(C)(C)C(=O)N[C@@H](Cc1ccccc1)C(N)=O (Ac-KKRYSR[Aib]FLL[Aib]F-NH2)
- helicity (circular dichroism): 2%

B1: eIF4G^D5S (peptide)
peptide: Ac-KKRYSREFLLGF-NH2
notes: also called eIF4G1^D5S; linear template peptide
- Kd [2]: 99.9 nM
- Kd [3]: 195 nM

B2: TIP-01^F8A (peptide)
peptide: Ac-KKRYSR[Aib]ALL[Aib]F-NH2
SMILES: CC(=O)N[C@@H](CCCCN)C(=O)N[C@@H](CCCCN)C(=O)N[C@@H](CCCNC(=N)N)C(=O)N[C@@H](Cc1ccc(O)cc1)C(=O)N[C@@H](CO)C(=O)N[C@@H](CCCNC(=N)N)C(=O)NC(C)(C)C(=O)N[C@@H](C)C(=O)N[C@@H](CC(C)C)C(=O)N[C@@H](CC(C)C)C(=O)NC(C)(C)C(=O)N[C@@H](Cc1ccccc1)C(N)=O
notes: Printed KKRYSRXALLXF, X = AIB
- Kd [2]: 117 nM
- Kd [3]: 156 nM

B3: TIP-04 (peptide)
peptide: Ac-KKRYSR[Aib]QLL[Aib]L-NH2
notes: Printed KKRYSRXQLLXL, X = AIB; also called AIB derivative of sTIP-04
- Kd [2]: 22 nM
- Kd [3]: 60 nM

B4: TIP-01^F12& (peptide)
peptide: Ac-KKRYSR[Aib]FLL[Aib][Abu]-NH2
SMILES: CC[C@H](NC(=O)C(C)(C)NC(=O)[C@H](CC(C)C)NC(=O)[C@H](CC(C)C)NC(=O)[C@H](Cc1ccccc1)NC(=O)C(C)(C)NC(=O)[C@H](CCCNC(=N)N)NC(=O)[C@H](CO)NC(=O)[C@H](Cc1ccc(O)cc1)NC(=O)[C@H](CCCNC(=N)N)NC(=O)[C@H](CCCCN)NC(=O)[C@H](CCCCN)NC(C)=O)C(N)=O
notes: Printed KKRYSRXFLLX&
- Kd [2]: 111 nM
- Kd [3]: 133 nM
